In patent publication US20130280162A1:

Biological target: human uPAR on 293/uPAR cells (human) (UniProt Q03405)
Assay: cell-based or functional assay

Chain of human uPAR on 293/uPAR cells (human) (Q03405 23-305): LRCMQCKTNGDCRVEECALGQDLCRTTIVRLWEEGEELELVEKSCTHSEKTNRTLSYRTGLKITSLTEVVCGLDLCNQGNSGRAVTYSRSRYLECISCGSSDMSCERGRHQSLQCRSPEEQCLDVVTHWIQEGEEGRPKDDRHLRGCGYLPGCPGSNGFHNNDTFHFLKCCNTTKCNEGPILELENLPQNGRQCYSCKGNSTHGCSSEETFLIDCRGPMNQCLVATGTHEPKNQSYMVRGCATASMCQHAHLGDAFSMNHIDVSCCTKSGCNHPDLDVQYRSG

B1: SMB-GFD/mFc (disulphide-linked homodimer) (Fc fusion)
chain: DQESCKGRCTEGFNVDKKCQCDELCSYYQSCCTDYTAECKPGGGGSGGGGSGGGGPSNCDCLNGGTCVSNKYFSNIHWCNCPKKFGGQHCEIDKSKGSGLEAGAGPRDCGCKPCICTVPEVSSVFIFPPKPKDVLTITLTPKVTCVVVDISKDDPEVQFSWFVDDVEVHTAQTKPREEQFNSTFRSVSELPIMHQDWLNGKEFKCRVNSAAFPAPIEKTISKTKGRPKAPQVYTIPPPKEQMAKDKVSLTCMITDFFPEDITVEWQWNGQPAENYKNTQPIMDTDGSYFVYSKLNVQKSNWEAGNTFTCSVLHEGLHNHHTEKSLSHSPGK
Question: For B1, which IC50, inhibition of 293/uPAR cell adhesion to VN (RTCA impedance, 1 h after addition) is on record?
Answer: The IC50, inhibition of 293/uPAR cell adhesion to VN (RTCA impedance, 1 h after addition) was 6.3 nM.

Question: What about the maximal inhibition of 293/uPAR cell adhesion to VN of the same binder?
Answer: The maximal inhibition of 293/uPAR cell adhesion to VN was 60%.

B2: GFD-SMB/mFc (disulphide-linked homodimer) (Fc fusion)
chain: SNELHQVPSNCDCLNGGTCVSNKYFSNIHWCNCPKKFGGQHCEIDKSKTGGGGSGGGGSGGGGQESCKGRCTEGFNVDKKCQCDELCSYYQSCCTDYTAECKPGSGLEAGAGPRDCGCKPCICTVPEVSSVFIFPPKPKDVLTITLTPKVTCVVVDISKDDPEVQFSWFVDDVEVHTAQTKPREEQFNSTFRSVSELPIMHQDWLNGKEFKCRVNSAAFPAPIEKTISKTKGRPKAPQVYTIPPPKEQMAKDKVSLTCMITDFFPEDITVEWQWNGQPAENYKNTQPIMDTDGSYFVYSKLNVQKSNWEAGNTFTCSVLHEGLHNHHTEKSLSHSPGK
Question: B2 was tested. Which IC50, inhibition of 293/uPAR cell adhesion to VN (RTCA impedance, 1 h after addition) did it give?
Answer: Its IC50, inhibition of 293/uPAR cell adhesion to VN (RTCA impedance, 1 h after addition) is 20 nM.

Question: And the maximal inhibition of 293/uPAR cell adhesion to VN?
Answer: Its maximal inhibition of 293/uPAR cell adhesion to VN is 60%.
